# Laboratory results taken from patent US20040001839A1, “Multimers - isolated molecules comprising epitopes containing sulfated moieties, antibodies to such epitopes, and uses thereof” (priority 2000, published 2004).
# Tests used:
# [1] = system: washed platelets; assay: Ristocetin-induced agglutination of washed platelets (scFv); type: cell-based, human; conditions: for % agglutination: 100% = ristocetin treatment; for % inhibition: ristocetin-induced agglutination
# Experimental: Aggregation is determined in PRP due to the presence of thrombotic agents, while agglutination is determined in washed platelets. The effect of Y1 (scFv) on agglutination of washed platelets was tested at various concentrations of Y1. Platelets were pre-incubated with Y1 scFv, Y17 scFv, Y16-scFv, or a control TM-1 scFv for 4 min at 37° C. before being exposed to ristocetin, an inducer of platelet agglutination and aggregation.
# Platelet concentrate in acid-citrate-dextrose (ACD) was obtained from a blood bank, platelets were isolated, washed once in buffer containing ACD and saline in a ratio of 1:7. The platelets were centrifuged at 800 g for 10 min after each wash and were resuspended in Tyrodes solution (2 mM MgCl2, 137 mM NaCl, 2.68 mM KCl, 3 mM NaH2PO4, 0.1% glucose, 5 mM Hepes and 0.35% albumin, pH 7.35) and count the number of cells.
# For platelet aggregation studies, platelet rich plasma (PRP) and washed platelets were stirred at 500 rpm at 37° C. in whole blood Lumiaggregometer (Chronolog, Havertown, Pa.). The difference in light transmission through the platelet suspension and suspending medium was taken as 100% aggregation. The effect of Y1 on platelet aggregation was evaluated by addition of different concentration of Y1 before the addition of agonist, and the effect was recorded for four minutes.
# The effect of Y17-scFv on vWF-dependent agglutination of platelets was tested at different concentrations of Y17.
# [2] = system: Jurkat cells; assay: FACS binding to Jurkat cells (IgG-Y1, scFv-Y1, diabodies, triabodies); parameters: species or system human; conditions: 1 μg scFv-Y1 versus 5 ng IgG-Y1, two-step staining
# Experimental: Binding experiments were performed to determine the level of binding of the IgG-Y1 molecule compared to the binding level of the scFv-Y1 molecule. A two-step staining procedure was employed, wherein 5 ng of IgG-Y1 were reacted with both RAJI cells (negative control, FIG. 44) and Jurkat cells (Y1 positive cells, FIG. 44). For detection, PE-labeled goat anti-human IgG was used. Similarly, 1 μg of scFv-Y1 was reacted with Jurkat cells (FIG. 44), and PE-labeled rabbit anti-scFv was used for detection.
# FACS analysis was performed on Jurkat cells using a “three step staining procedure.” First, crude extracts or purified unlabeled scFv are stained, then mouse anti-myc antibodies, and finally, FITC- or PE-conjugated anti-mouse antibodies. FACS analysis requires 5-8×10^5 cells, which have been Ficoll-purified and resuspended in PBS+1% BSA. Binding was carried out for 1 hour at 4° C. After each step, cells were washed and resuspended in PBS+1% BSA. After the final staining step, cells were fixed by re-suspending in PBS, 1% BSA, 2% formaldehyde, and then read by FACS (Becton-Dickinson).
# The binding of Y1-scFv was compared to that of diabodies and triabodies.
# [3] = target: T1, natural human platelet derived glycocalicin (Homo sapiens, UniProt P07359); assay: Western blot on natural platelet glycocalicin; type: binding; conditions: semi-purified human platelet derived glycocalicin
# T1 construct: glycocalicin (soluble, extracellular fragment of GPIbα); from tissue; host or cells: human platelets
# Experimental: The DNA fragment encoding for glycocalicin (GC, amino acid 1 to amino acid 493 of GPIbα) was cloned into an IPTG inducible prokaryotic vector cassette. E. coli (BL21 DE3) cells harboring the newly constructed plasmid were grown at 37° C. to O.D. 0.7-0.8, than at 37° C. for 3 hours for in the presence of IPTG for induction.
# SDS-polyacrylamide gel loaded either with semi-purified human platelet derived glycocalicin (“GC”) or with E. coli cell lysates (“total”) derived from induced and non-induced cells were analyzed. Western blot analysis was performed with biotinylated Y1-scFv, polyclonal rabbit anti-human glycocalicin antibody, commercially available mouse anti-human CD42 monoclonal antibody (SZ2 Immunotech, PM640 Serotec, HIP1 Pharmigen, AN51 DAKO), and polyclonal antibody against the N-terminus of GPIbα (Sc-7071, Santa Cruz).
molecule,measurement,setting,value
"Y1 scFv: fully human scFv clone binding platelets and AML cells; SEQ ID NO:25, heavy chain CDR3 SEQ ID NO:8 (protein, listed as Homo sapiens) scFv: MKYLLPTAAAGLLLLAAQPAMAEVQLVESGGGVVRPGGSLRLSCAASGFTFDDYGMSWVRQAPGKGLEWVSGINWNGGSTGYADSVKGRFTISRDNAKNSLYLQMNSLRAEDTAVYYCARMRAPVIWGQGTLVTVSRGGGGSGGGGSGGGGSSELTQDPAVSVALGQTVRITCQGDSLRSYYASWYQQKPGQAPVLVIYGKNNRPSGIPDRFSGSSSGNTASLTITGAQAEDEADYYCNSRDSSGNHVVFGGGTKLTVLGAAAEQKLISEEDLNGAA",% agglutination,[1]; scFv 4 μg/ml,92%
same,% inhibition,[1]; scFv 4 μg/ml,8%
same,% inhibition,"[1]; scFv 4 μg/ml, listed as Y1",No inhibition
same,% agglutination,[1]; scFv 12.5 μg/ml,67%
same,% inhibition,[1]; scFv 12.5 μg/ml,33%
same,% inhibition,"[1]; scFv 12.5 μg/ml, listed as Y1",only partial inhibition
same,% agglutination,[1]; scFv 25 μg/ml,23%
same,more molecules needed for a level of detection similar to IgG-Y1,[2],approximately 10^3 fold
same,recognition in Western blot,[3],recognized
